Reference: patent publication US20220348617A1 (published 2022)

Legend:
hDLL4 site2 = assay: SPR; N-EGF3
DLL4.v3 = assay: SPR; N-EGF3
Notch 3 EGF domains 5-12 [1] = target: T1, Notch 3 EGF domains 5-12 (human, UniProt Q9UM47 197-505); assay: SPR; N-EGF3
T1 chain: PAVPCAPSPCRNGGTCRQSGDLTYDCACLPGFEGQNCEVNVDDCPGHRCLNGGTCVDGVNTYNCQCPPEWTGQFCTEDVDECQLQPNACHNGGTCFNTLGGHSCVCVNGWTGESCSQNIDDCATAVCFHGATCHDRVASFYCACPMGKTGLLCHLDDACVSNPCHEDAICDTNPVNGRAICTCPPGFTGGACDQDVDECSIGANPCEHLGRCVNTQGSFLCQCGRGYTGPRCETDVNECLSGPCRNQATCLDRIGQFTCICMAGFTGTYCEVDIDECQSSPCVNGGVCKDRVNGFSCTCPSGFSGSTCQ

Notch2 EGF domains 6-13 [2] = target: T2, Notch2 EGF domains 6-13 (human, UniProt Q04721 221-530); assay: SPR; N-EGF3
T2 chain: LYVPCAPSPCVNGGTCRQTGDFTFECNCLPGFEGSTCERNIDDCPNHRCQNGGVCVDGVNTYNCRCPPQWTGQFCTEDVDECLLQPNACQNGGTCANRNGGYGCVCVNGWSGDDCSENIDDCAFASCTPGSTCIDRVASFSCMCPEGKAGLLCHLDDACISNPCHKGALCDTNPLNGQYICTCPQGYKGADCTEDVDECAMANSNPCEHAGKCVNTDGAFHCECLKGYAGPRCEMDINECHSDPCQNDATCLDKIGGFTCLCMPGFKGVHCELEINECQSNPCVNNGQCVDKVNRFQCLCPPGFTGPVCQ

Notch1 EGF domains 6-13 [3] = target: T3, Notch1 EGF domains 6-13 (human, UniProt P46531 218-526); assay: SPR; N-EGF3
T3 chain: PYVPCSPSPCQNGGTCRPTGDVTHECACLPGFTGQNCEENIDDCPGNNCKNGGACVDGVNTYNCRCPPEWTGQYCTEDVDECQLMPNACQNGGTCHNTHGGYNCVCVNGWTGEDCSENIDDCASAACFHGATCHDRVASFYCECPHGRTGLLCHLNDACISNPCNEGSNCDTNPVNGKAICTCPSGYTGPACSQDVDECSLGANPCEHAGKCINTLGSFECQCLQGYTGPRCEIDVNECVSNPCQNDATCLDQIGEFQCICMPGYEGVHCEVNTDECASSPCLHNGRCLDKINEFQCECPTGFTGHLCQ

Notch 3 EGF domains 5-12 [4] = target: T1, Notch 3 EGF domains 5-12; assay: SPR
Notch2 EGF domains 6-13 [5] = target: T2, Notch2 EGF domains 6-13; assay: SPR
Notch1 EGF domains 6-13 [6] = target: T3, Notch1 EGF domains 6-13; assay: SPR

B1: hNotch2 (EGF6-13) (receptor)
chain: LYVPCAPSPCVNGGTCRQTGDFTFECNCLPGFEGSTCERNIDDCPNHRCQNGGVCVDGVNTYNCRCPPQWTGQFCTEDVDECLLQPNACQNGGTCANRNGGYGCVCVNGWSGDDCSENIDDCAFASCTPGSTCIDRVASFSCMCPEGKAGLLCHLDDACISNPCHKGALCDTNPLNGQYICTCPQGYKGADCTEDVDECAMANSNPCEHAGKCVNTDGAFHCECLKGYAGPRCEMDINECHSDPCQNDATCLDKIGGFTCLCMPGFKGVHCELEINECQSNPCVNNGQCVDKVNRFQCLCPPGFTGPVCQ
A Kd (hDLL4 site2) of 3.25 µM and a Kd (DLL4.v3) of 0.0314 µM were found for B1 in this work.

B2: wildtype (WT) human DLL4 (ligand)
chain: SGVFQLQLQEFINERGVLASGRPCEPGCRTFFRVCLKHFQAVVSPGPCTFGTVSTPVLGTNSFAVRDDSSGGGRNPLQLPFNFTWPGTFSLIIEAWHAPGDDLRPEALPPDALISKIAIQGSLAVGQNWLLDEQTSTLTRLRYSYRVICSDNYYGDNCSRLCKKRNDHFGHYVCQPDGNLSCLPGWTGEYCQQPICLSGCHEQNGYCSKPAECLCRPGWQGRLCNECIPHNGCRHGTCSTPWQCTCDEGWGGLFCDQDLNYCTHHSPCKNGATCSNSGQRSYTCTCRPGYTGVDCE
A Kd (Notch 3 EGF domains 5-12 [1]) of 22.2 µM, a Kd (Notch2 EGF domains 6-13 [2]) of 35.7 µM and a Kd (Notch1 EGF domains 6-13 [3]) of 17.9 µM were found for B2 in this work. For the same binder, the Kd (Notch 3 EGF domains 5-12 [4]) was 10.4 µM, the Kd (Notch2 EGF domains 6-13 [5]) was 4.99 µM and the Kd (Notch1 EGF domains 6-13 [6]) was 4.04 µM.

B3: hNotch 3 (EGF6-13) (receptor)
chain: PAVPCAPSPCRNGGTCRQSGDLTYDCACLPGFEGQNCEVNVDDCPGHRCLNGGTCVDGVNTYNCQCPPEWTGQFCTEDVDECQLQPNACHNGGTCFNTLGGHSCVCVNGWTGESCSQNIDDCATAVCFHGATCHDRVASFYCACPMGKTGLLCHLDDACVSNPCHEDAICDTNPVNGRAICTCPPGFTGGACDQDVDECSIGANPCEHLGRCVNTQGSFLCQCGRGYTGPRCETDVNECLSGPCRNQATCLDRIGQFTCICMAGFTGTYCEVDIDECQSSPCVNGGVCKDRVNGFSCTCPSGFSGSTCQ
A Kd (hDLL4 site2) of 1.65 µM and a Kd (DLL4.v3) of 0.0273 µM were found for B3 in this work.

B4: hNotch1 (EGF6-13) (receptor)
chain: PYVPCSPSPCQNGGTCRPTGDVTHECACLPGFTGQNCEENIDDCPGNNCKNGGACVDGVNTYNCRCPPEWTGQYCTEDVDECQLMPNACQNGGTCHNTHGGYNCVCVNGWTGEDCSENIDDCASAACFHGATCHDRVASFYCECPHGRTGLLCHLNDACISNPCNEGSNCDTNPVNGKAICTCPSGYTGPACSQDVDECSLGANPCEHAGKCINTLGSFECQCLQGYTGPRCEIDVNECVSNPCQNDATCLDQIGEFQCICMPGYEGVHCEVNTDECASSPCLHNGRCLDKINEFQCECPTGFTGHLCQ
A Kd (hDLL4 site2) of 0.471 µM and a Kd (DLL4.v3) of 0.02 µM were found for B4 in this work.
